{"source": "patent US12305172", "key": {"[1]": {"molecular_target": "thrombin (Bos taurus) (UniProt P00735+P00735)", "assay": "inhibition", "conditions": "clotting time"}, "[2]": {"molecular_target": "thrombin (UniProt P00734+P00734)", "conditions": "CD titration at 295 nm, water, no added cations"}}, "note": "Read-outs that look alike come from different tables or passages of the source.", "data": [{"sequence": "GGUUGGUGUGGUUGG [iso-rTBA]", "values": [{"measurement": "activity", "setting": "[1]; all 2'-5'-linked RNA (3'-OH), SEQ ID NO:1, 0.25 uM oligomer, 0.1 NIH U thrombin, 3.5 uM human fibrinogen, 37 °C", "result": 70.9, "unit": "s"}, {"measurement": "Kd", "setting": "[2]; all 2'-5'-linked RNA (3'-OH), SEQ ID NO:1, n = 4 thrombin per oligomer", "result": 3400, "unit": "nM"}]}, {"sequence": "GGTTGGTGTGGTTGG [isoTBA]", "values": [{"measurement": "activity", "setting": "[1]; 2'-5'-linked isoDNA analogue of TBA [1-15 (all 2'-5'-linked isoDNA)], stated for comparison with TBA and iso-rTBA", "result": 73.4, "unit": "s"}]}, {"sequence": "GGTTGGTGTGGTTGG [TBA]", "values": [{"measurement": "Kd", "setting": "[2]; n = 1", "result": 380, "unit": "nM"}]}]}
